This experiment addresses T1, human TGF-β2 (human).
T1 sequence (P61812 303-414, looked up): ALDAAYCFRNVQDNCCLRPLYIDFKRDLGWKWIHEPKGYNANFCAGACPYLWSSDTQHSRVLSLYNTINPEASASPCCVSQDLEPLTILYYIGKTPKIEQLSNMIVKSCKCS
The experiment is described as follows: SPR.

Results on 1 molecule are retold here after article PMC6726503.

As a reminder, the Kd is the equilibrium constant for the complex coming apart. Higher therefore signals lower affinity. As usually defined, the koff is the first-order rate constant of dissociation. A low value points to a long-lived complex. By kon is commonly meant a measure of how fast the partners come together. High values mean fast association, low ones slow association.

B1: full-length rat betaglycan ectodomain (domain or fragment)
chain: GPEPSTRCELSPINASHPVQALMESFTVLSGCASRGTTGLPREVHVLNLRSTDQGPGQRQREVTLHLNPIASVHTHHKPIVFLLNSPQPLVWHLKTERLAAGVPRLFLVSEGSVVQFPSGNFSLTAETEERNFPQENEHLLRWAQKEYGAVTSFTELKIARNIYIKVGEDQVFPPTCNIGKNFLSLNYLAEYLQPKAAEGCVLPSQPHEKEVHIIELITPSSNPYSAFQVDIIVDIRPAQEDPEVVKNLVLILKCKKSVNWVIKSFDVKGNLKVIAPNSIGFGKESERSMTMTKLVRDDIPSTQENLMKWALDNGYRPVTSYTMAPVANRFHLRLENNEEMRDEEVHTIPPELRILLDPDHPPALDNPLFPGEGSPNGGLPFPFPDIPRRGWKEGEDRIPRPKQPIVPSVQLLPDHREPEEVQGGVDIALSVKCDHEKMVVAVDKDSFQTNGYSGMELTLLDPSCKAKMNGTHFVLESPLNGCGTRHRRSTPDGVVYYNSIVVQAPSPGDSSGWPDGYEDLESGDNGFPGDGDEGETAPLSRAGVVVFNCSLRQLRNPSGFQGQLDGNATFNMELYNTDLFLVPSPGVFSVAENEHVYVEVSVTKADQDLGFAIQTCFLSPYSNPDRMSDYTIIENICPKDDSVKFYSSKRVHFPIPHAEVDKKRFSFLFKSVFNTSLLFLHCELTLCSRKKGSLKLPRCVTPDDACTSLDATMIWTMMQNKKTFTKPLAVVLQVDYKENVPSTKDSSPIPPPPPQIFHGLDTLTV
With B1, the Kd was 0.511 nM, the koff amounted to 0.000755 s⁻¹ and the association rate constant (kon) turned out to be 1.48e+06 M⁻¹ s⁻¹.
